# From PMC2270346
# Molecular target: mouse Wnt3a, His-tagged (mouse) (UniProt P27467)
# Sequence of UniProt P27467 (P27467 19-352): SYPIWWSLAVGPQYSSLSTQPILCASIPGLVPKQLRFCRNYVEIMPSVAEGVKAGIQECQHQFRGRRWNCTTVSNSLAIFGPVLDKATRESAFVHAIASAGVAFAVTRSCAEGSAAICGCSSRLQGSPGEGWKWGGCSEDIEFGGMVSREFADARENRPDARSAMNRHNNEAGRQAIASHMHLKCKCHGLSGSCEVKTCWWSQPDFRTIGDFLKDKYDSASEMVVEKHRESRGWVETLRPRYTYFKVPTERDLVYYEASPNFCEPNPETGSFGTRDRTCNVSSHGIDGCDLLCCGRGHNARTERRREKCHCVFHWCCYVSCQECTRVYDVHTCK
row,suppression of Wnt3a-induced beta-catenin-TCF-regulated transcription (SUPER8XTOPFLASH reporter) in HEK293T and Huh-7 cells cotransfected with Wnt3a,Substance
1,> 80%,"human FZC18 module, myc-tagged (domain or fragment)"
2,> 80%,"human V3Nter, V5-tagged (domain or fragment)"
